Key:
Assay type in all cases: cell-based, mouse
TCF1 = assay: Th17 in vitro differentiation, TCF1 and RORγt expression by flow cytometry
Description: (§1) Single-cell suspension were prepared from spleen and lymph nodes, and CD4 T cells isolated using the anti-CD4 microbeads (Miltenyi, catalogue #130-117-043). Subsequently, naïve CD4 T cells (CD62L^+ CD44^− CD25^−) were enriched through fluorescence activated cell sorting (FACS) performed on a BD FACSAria Ilu. Naïve CD4 T cells were activated for 3 days with 1 ug/ml of plate-bound anti-CD3 (BioXcell, BP0001) and anti-CD28 (BioXcell, BE0015), plus the addition of 20 ng/ml of IL-1B (R&D Systems), 25 ng/ml of IL-6 (R&D Systems), 20 ng/ml of IL-23 (R&D Systems), 20 ug/ml of anti-IFNγ (BioXcell, BE0055) and 20 μg/ml of anti-IL4 (BioXcell, BE0045) for pathogenic Th17; 2 ng/ml of TGFβ1, 25 ng/ml of IL-6, 20 μg/ml of anti-IFN and 20 μg/ml of anti-IL4 for non-pathogenic Th17. Cells were then rested in un-coated plates in absence of anti-CD3/anti-CD28 stimulation for 2 days. For some experiments, cells were re-stimulated with 1 ug/ml of anti-CD3/anti-CD28 for 1-2 days.
(§2) Single-cell suspensions were firstly stained to discriminate live cells with UV Zombie (Biolegend) in PBS, and then in FACS buffer (2% bovine serum albumin in PBS) with antibodies for surface antigens. […] Fully stained samples were read either at a BD LSRFortessa or BD FACSymphony. The data were analyzed with FlowJo software (TreeStar) and GraphPad Prism software (GraphPad).

Tcf7 locus = Tcf7 locus reporter (Tcf7-GFP) activity in Th17 cells; details: CD4 T cells of Tcf7 locus reporter strain, IL-1β+IL-6 with or without IL-23 for 3 days, then 2 days of rest (FIG. 8C)
Description: as §1, §2

CD4+ T cells = assay: Glycolytic rate assay using Seahorse (ECAR); details: WT cells differentiated with IL-1β+IL-6 with or without IL-23 (FIG. 12G)
Excerpt: FIG. 12A-12K—TCF1 deficiency obviates the need for IL-23 for Th17 pathogenicity. (FIG. 12A) Schematic view of in vitro differentiation with IL-1b and IL-6 for adoptive transfer experiments. (FIG. 12B-12D) CNS-infiltrating immune cells (FIG. 12B-12C) or immune cells from draining lymph nodes (dLN) (FIG. 12D) were harvested from mice at peak of disease (EAE score 1-5) and analyzed by flow cytometry. (FIG. 12B) Summary data of the frequency of Foxp3+ cells within the 2D2 cell population infiltrating the CNS (WT n=11; KO n=12). (FIG. 12C) Summary data of cytokine production by host CD4+ T cells infiltrating the CNS (WT n=10; KO n=12). (FIG. 12D) Summary data of the frequency of SLAMF6+ and CXCR6+ cells within 2D2+ cells in the dLN of recipients of 2D2 TCF1 WT (n=8) and TCF1cKO (n=10) cells. […] (FIG. 12I-12J) CNS-infiltrating 2D2 cells were harvested and FACS-sorted from mice at peak of disease (EAE score 1-5) and analyzed by confocal microscopy. […]
Th17 pathogenicity is driven by IL-23 and has been associated with increased glycolytic activity and lipid metabolism, which in turn, supply crucial sterol ligands to boost RORγt transcriptional activity. […] The disclosure further assessed the intra-cellular lipid content of 2D2 TCF1 WT and 2D2 TCF1cKO cells isolated from the CNS of p19^−/− mice.

B1: IL-23: a cytokine critical for inducing pathogenic Th17 cells (protein, UniProt Q9NPF7 20-189; P29460 23-328, looked up)
Interleukin-23 subunit alpha: RAVPGGSSPAWTQCQQLSQKLCTLAWSAHPLVGHMDLREEGDEETTNDVPHIQCGDGCDPQGLRDNSQFCLQRIHQGLIFYEKLLGSDIFTGEPSLLPDSPVGQLHASLLGLSQLLQPEGHHWETQQIPSLSPSQPWQRLLLRFKILRSLQAFVAVAARVFAHGAATLSP
Interleukin-12 subunit beta: IWELKKDVYVVELDWYPDAPGEMVVLTCDTPEEDGITWTLDQSSEVLGSGKTLTIQVKEFGDAGQYTCHKGGEVLSHSLLLLHKKEDGIWSTDILKDQKEPKNKTFLRCEAKNYSGRFTCWWLTTISTDLTFSVKSSRGSSDPQGVTCGAATLSAERVRGDNKEYEYSVECQEDSACPAAEESLPIEVMVDAVHKLKYENYTSSFFIRDIIKPDPPKNLQLKPLKNSRQVEVSWEYPDTWSTPHSYFSLTFCVQVQGKSKREKKDRVFTDKTSATVICRKNASISVRAQDRYYSSSWSEWASVPCS
TCF1 protein expression (TCF1; naïve CD4+ T cells differentiated with IL-1β and IL-6 for 2 days, then increasing doses of IL-23, dose-dependent (FIG. 1F)): decreased significantly | proportion of TCF1lo RORγt hi cells (TCF1; pTh17 differentiated for 3 days, then fresh IL-23 added in the culture media (FIG. 8D)): increased proportion | Tcf7 locus reporter activity (Tcf7 locus): significantly decreased | glycolysis (extracellular acidification rate; ECAR) (CD4+ T cells): increased glycolysis

From patent US20260108606A1, “TREATMENT OF AUTOIMMUNE DISEASES HAVING A PATHOGENIC T CELL STATE” (THE BRIGHAM AND WOMEN'S HOSPITAL, INC., priority 2023, published 2026)
